Source: article doi:10.1101/2022.04.27.489743 (bioRxiv, 2022)

Experiments:
Assay in all cases: ITC
AnkG R6-16 = AnkG R6-16 (UniProt O70511)
[1] = target: T1, AnkG ANK repeats (R1-24, residues 38-855) (UniProt O70511 38-855)
T1 sequence: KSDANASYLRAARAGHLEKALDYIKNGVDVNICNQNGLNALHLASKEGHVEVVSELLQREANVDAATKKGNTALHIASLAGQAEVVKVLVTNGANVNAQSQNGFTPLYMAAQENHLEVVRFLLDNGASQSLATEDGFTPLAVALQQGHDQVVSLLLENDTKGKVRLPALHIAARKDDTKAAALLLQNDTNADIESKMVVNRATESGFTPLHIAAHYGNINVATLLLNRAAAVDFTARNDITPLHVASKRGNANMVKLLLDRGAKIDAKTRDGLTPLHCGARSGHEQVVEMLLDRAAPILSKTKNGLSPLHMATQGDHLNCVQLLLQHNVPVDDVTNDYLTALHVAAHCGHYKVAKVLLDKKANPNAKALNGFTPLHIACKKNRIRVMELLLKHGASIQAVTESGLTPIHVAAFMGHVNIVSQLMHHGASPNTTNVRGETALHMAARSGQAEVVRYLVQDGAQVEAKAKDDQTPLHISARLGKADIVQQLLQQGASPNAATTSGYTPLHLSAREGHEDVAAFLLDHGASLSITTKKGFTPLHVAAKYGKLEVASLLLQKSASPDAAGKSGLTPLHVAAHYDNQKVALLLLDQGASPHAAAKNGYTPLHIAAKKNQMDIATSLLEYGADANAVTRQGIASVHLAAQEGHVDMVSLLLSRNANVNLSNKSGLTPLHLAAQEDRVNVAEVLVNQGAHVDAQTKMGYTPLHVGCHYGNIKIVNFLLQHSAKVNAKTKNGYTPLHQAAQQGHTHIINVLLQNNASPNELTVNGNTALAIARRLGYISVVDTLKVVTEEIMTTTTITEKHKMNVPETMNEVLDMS

[2] = target: T2, AnkG 275-571 (AnkG R8-16) (UniProt O70511 275-571)
T2 sequence: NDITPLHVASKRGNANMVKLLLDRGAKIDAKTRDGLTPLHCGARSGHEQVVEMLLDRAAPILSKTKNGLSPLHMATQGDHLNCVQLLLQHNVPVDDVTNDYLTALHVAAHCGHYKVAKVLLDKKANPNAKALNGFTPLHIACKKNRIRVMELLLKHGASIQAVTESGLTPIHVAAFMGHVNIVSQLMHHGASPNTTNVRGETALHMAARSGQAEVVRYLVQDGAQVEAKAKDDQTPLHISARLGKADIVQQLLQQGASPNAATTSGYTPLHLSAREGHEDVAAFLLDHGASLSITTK

Chain of AnkG R6-16 (O70511 whole entry, the tested form may be a part): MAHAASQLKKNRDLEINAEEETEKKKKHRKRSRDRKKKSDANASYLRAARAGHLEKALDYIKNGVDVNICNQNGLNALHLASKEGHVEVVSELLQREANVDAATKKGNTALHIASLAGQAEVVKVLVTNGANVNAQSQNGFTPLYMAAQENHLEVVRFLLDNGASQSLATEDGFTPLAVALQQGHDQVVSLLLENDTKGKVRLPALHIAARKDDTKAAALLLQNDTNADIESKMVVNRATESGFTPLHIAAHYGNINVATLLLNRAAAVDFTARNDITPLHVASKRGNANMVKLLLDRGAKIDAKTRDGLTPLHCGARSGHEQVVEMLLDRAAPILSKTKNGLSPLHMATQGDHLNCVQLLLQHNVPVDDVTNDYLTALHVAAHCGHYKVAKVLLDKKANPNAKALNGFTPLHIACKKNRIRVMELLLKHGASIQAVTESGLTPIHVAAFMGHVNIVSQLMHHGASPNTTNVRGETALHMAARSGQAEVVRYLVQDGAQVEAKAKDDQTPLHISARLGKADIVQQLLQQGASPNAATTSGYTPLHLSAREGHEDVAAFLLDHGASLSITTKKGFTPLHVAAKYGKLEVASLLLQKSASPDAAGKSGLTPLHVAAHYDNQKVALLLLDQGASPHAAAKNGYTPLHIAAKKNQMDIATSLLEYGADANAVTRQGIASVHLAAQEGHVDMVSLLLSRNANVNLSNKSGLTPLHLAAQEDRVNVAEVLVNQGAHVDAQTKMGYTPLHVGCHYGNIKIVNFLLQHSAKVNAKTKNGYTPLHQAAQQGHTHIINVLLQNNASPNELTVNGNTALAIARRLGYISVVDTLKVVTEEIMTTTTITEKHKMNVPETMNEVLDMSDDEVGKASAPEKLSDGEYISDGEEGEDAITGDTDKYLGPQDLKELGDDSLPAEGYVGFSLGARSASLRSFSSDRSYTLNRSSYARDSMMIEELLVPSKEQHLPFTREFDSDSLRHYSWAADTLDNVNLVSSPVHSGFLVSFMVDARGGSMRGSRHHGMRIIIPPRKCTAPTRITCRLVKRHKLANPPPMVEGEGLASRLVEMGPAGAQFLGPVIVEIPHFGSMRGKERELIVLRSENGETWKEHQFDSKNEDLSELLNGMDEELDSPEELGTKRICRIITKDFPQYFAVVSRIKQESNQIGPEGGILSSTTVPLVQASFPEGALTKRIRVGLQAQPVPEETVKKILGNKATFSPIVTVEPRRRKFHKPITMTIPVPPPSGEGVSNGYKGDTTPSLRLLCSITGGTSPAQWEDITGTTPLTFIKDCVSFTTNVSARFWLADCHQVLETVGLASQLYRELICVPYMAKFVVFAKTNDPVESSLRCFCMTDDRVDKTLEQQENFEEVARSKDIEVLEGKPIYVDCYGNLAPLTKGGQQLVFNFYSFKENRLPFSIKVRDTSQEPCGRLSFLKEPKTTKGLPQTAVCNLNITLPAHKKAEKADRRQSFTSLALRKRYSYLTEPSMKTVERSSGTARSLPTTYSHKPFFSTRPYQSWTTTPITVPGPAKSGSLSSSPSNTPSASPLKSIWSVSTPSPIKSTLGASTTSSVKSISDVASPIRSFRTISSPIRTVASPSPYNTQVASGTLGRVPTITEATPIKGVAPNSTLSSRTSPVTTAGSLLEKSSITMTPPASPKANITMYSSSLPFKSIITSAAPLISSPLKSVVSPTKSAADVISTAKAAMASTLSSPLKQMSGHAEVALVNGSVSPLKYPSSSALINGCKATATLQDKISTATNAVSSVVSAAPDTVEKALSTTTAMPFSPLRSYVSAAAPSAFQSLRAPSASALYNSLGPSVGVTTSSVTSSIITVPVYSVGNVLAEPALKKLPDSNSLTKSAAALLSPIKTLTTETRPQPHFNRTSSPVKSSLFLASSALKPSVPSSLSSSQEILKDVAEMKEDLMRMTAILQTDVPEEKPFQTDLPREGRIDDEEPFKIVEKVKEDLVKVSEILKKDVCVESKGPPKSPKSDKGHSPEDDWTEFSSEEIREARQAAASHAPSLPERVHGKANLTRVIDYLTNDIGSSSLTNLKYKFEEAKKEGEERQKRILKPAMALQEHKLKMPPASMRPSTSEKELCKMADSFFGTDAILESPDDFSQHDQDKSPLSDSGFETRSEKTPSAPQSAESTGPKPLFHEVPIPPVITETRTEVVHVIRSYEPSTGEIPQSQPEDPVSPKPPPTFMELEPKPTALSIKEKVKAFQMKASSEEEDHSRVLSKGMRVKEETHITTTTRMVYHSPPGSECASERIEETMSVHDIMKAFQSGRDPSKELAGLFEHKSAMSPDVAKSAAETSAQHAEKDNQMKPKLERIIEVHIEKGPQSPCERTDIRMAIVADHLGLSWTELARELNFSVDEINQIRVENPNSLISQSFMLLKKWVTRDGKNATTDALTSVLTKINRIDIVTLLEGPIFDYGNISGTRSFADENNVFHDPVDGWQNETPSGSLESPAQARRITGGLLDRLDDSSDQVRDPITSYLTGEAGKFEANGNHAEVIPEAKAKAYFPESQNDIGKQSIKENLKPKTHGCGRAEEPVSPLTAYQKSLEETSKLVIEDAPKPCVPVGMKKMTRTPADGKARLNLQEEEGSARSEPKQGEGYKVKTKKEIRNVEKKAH

Molecule: Nfasc ankyrin binding domain (ABD), residues 1187-1214 (from UniProt P97685 1187-1214) (domain or fragment)
- Kd (AnkG R6-16): 290 nM

Molecule: GEGQFNADGSFIGQYTV [Nfasc 1198-1214 E1204A]
- fold decrease in binding affinity against Nfasc 1198-1214 WT [1]: ~27 fold

Molecule: GEGQQNEDGSFIGQYTV [Nfasc 1198-1214 F1202Q]
- fold decrease in binding against Nfasc 1198-1214 WT [1]: > 20 fold

Molecule: GEGQFNEDGSFIGQETV [Nfasc 1198-1214 Y1212E]
- fold decrease in binding against Nfasc 1198-1214 WT [1]: ~9 fold

Molecule: SDDSLVDYGEGGEGQFNEDGSFIGQYTV (domain or fragment) [Nfasc ankyrin binding domain (ABD), residues 1187-1214]
- Kd [1]: ~220 nM
- Kd [2]: ~1200 nM
